We go through 47 variants from the Human Domainome abundance scans (Beltran et al. 2025).

The labels stand for the following.
B1: POU domain, class 3, transcription factor 3, residues 408 to 463; numbered along this chain, P20264 (parent)
chain: KKRTSIEVSVKGALESHFLKCPKPSAQEITNLADSLQLEKEVVRVWFCNRRQKEKR

± gives the uncertainty stated by the source.

In this data set the parent is B1. Description: abundance fitness (aPCA) (normalised: wild type 0, dead -1); higher = more abundant; growth selection in yeast, the domain comes from the species named. The settings on record: Homo sapiens.
With KKRTSIEVSVKGALESMFLKCPKPSAQEITNLADSLQLEKEVVRVWFCNRRQKEKR [H17M], the abundance fitness is -0.147 ± 0.1.
Turning to KKRTSIEVSVKGALESCFLKCPKPSAQEITNLADSLQLEKEVVRVWFCNRRQKEKR [H17C], the abundance fitness was -0.201 ± 0.11.
The result for KKRTSIEVSVKGALESHFLKCPKPSAREITNLADSLQLEKEVVRVWFCNRRQKEKR [Q27R] reads -0.055 ± 0.058.
The result for KKRTSIEVSVKGALESHFLKCPKPSAVEITNLADSLQLEKEVVRVWFCNRRQKEKR [Q27V] reads -0.11 ± 0.07.
The result for KKRTSIEVSVKGALESHFLKCPKPSACEITNLADSLQLEKEVVRVWFCNRRQKEKR [Q27C] reads -0.171 ± 0.1; that for KKRTSIEVSVKGALESHFLKCPKPSAQEITNLADSLQLEKEVVRVWFCVRRQKEKR [N49V], -0.152 ± 0.1; that for KKRTSIEVSVKGALESHFLKCPKPSAQEITNLADSLQLEKEVVRVWFCERRQKEKR [N49E], 0.041 ± 0.13.
Turning to KKRTSIEVSVKGALESHFLKCPKPSAQEITNLADSLQLECEVVRVWFCNRRQKEKR [K40C], the abundance fitness is -0.038 ± 0.1.
In the case of KKRTSIEVSVKGMLESHFLKCPKPSAQEITNLADSLQLEKEVVRVWFCNRRQKEKR [A13M], the abundance fitness was -0.096 ± 0.12.
The result for KKRTSIEVMVKGALESHFLKCPKPSAQEITNLADSLQLEKEVVRVWFCNRRQKEKR [S9M] reads -0.305 ± 0.15; that for KKRTSIEVGVKGALESHFLKCPKPSAQEITNLADSLQLEKEVVRVWFCNRRQKEKR [S9G], 0.027 ± 0.065; that for KKRTSIEVSVKGALESHFLKCPKPSAQEITNLADSLQLEKEVVRVWFCNRRQKAKR [E54A], -0.185 ± 0.074.
The result for KKRTSIEVSVKGALESHFLKCPKPSAQEITNLADSLQLEKEVVRVWFCNRRQKRKR [E54R] reads -0.485 ± 0.078.
The result for KKRTSIEVSVKGALESHFLKCPKPSAQEITNLADSLQLEKEVVRVWFCNRRQKQKR [E54Q] reads -0.241 ± 0.12; that for KKRTSIEVSVKGALESHFLKCPKISAQEITNLADSLQLEKEVVRVWFCNRRQKEKR [P24I], -0.731 ± 0.22.
On to KKRTSIEVSVKGALESHFLKCPKTSAQEITNLADSLQLEKEVVRVWFCNRRQKEKR [P24T], for which the abundance fitness was -0.825 ± 0.24.
The result for KKRTSIEVSVKGALESHFLKCPKKSAQEITNLADSLQLEKEVVRVWFCNRRQKEKR [P24K] reads -0.93 ± 0.23.
The result for KKRTSIEVSVMGALESHFLKCPKPSAQEITNLADSLQLEKEVVRVWFCNRRQKEKR [K11M] reads -0.006 ± 0.16; that for KKRTSIEVSVHGALESHFLKCPKPSAQEITNLADSLQLEKEVVRVWFCNRRQKEKR [K11H], -0.04 ± 0.12; that for KKRTSIEVSVKGALVSHFLKCPKPSAQEITNLADSLQLEKEVVRVWFCNRRQKEKR [E15V], -0.698 ± 0.21.
The result for KKRTSIEVSVKGALESHFLKCPKPSAQEITNLADSLSLEKEVVRVWFCNRRQKEKR [Q37S] reads -0.054 ± 0.068; that for KKRTSIEVSVKGALESHFLKCPKPSAQEITNLADSLILEKEVVRVWFCNRRQKEKR [Q37I], -0.453 ± 0.13; that for KKRTSIEVSVKGALESHFLKCPKPSAQEITNLADSLFLEKEVVRVWFCNRRQKEKR [Q37F], -0.3 ± 0.16.
On to KKRTSIEVSVKGALESHFLKCPKPSAQEITNLADSLQLEKEVVSVWFCNRRQKEKR [R44S], for which the abundance fitness was -0.55 ± 0.35.
The result for KKRTSIEVSVKGALESHFLKCIKPSAQEITNLADSLQLEKEVVRVWFCNRRQKEKR [P22I] reads -0.572 ± 0.23; that for KKRTSIEVSHKGALESHFLKCPKPSAQEITNLADSLQLEKEVVRVWFCNRRQKEKR [V10H], 0.072 ± 0.18.
Consider KKRTSIEVSVKGALESHFLKCPKPPAQEITNLADSLQLEKEVVRVWFCNRRQKEKR [S25P], for which the abundance fitness is -0.373 ± 0.14.
The result for KKRTSIEVSVKGALESHFLKSPKPSAQEITNLADSLQLEKEVVRVWFCNRRQKEKR [C21S] reads 0.041 ± 0.086.
The result for KKRSSIEVSVKGALESHFLKCPKPSAQEITNLADSLQLEKEVVRVWFCNRRQKEKR [T4S] reads -0.077 ± 0.078; that for KKRLSIEVSVKGALESHFLKCPKPSAQEITNLADSLQLEKEVVRVWFCNRRQKEKR [T4L], -0.093 ± 0.074; that for KQRTSIEVSVKGALESHFLKCPKPSAQEITNLADSLQLEKEVVRVWFCNRRQKEKR [K2Q], -0.255 ± 0.23.
The result for KTRTSIEVSVKGALESHFLKCPKPSAQEITNLADSLQLEKEVVRVWFCNRRQKEKR [K2T] reads -0.008 ± 0.11; that for KKRTSIEVSVKGALESHFLKCPKPSAQEITNLADSLQLEKERVRVWFCNRRQKEKR [V42R], -0.224 ± 0.065.
With KKRTSIEVSVKGALESHFLKCPKPSAQEITNLADSLQLEKELVRVWFCNRRQKEKR [V42L], the abundance fitness is -0.091 ± 0.067.
The result for KKRTSIEVSVKGALESHFLKCPKPSAQEITNLADSLQLEKEDVRVWFCNRRQKEKR [V42D] reads -0.014 ± 0.19; that for KKRTSIEVSVKGALESHFLKCPKPSAQEITNLADSLQLEKEYVRVWFCNRRQKEKR [V42Y], -0.02 ± 0.18; that for KKRTSIEVSVKGALESHFLKCPKPSAQEITNLADSLQLEKEPVRVWFCNRRQKEKR [V42P], -0.556 ± 0.13.
The result for KKRTSIEVSVKGALESHFLKCPKPSAQEITNLADSLQLEKEVVRVWFCNRREKEKR [Q52E] reads 0.057 ± 0.14; that for KKRTSIEVSVKGALESHFLKCPKPSAQEITNLADSLQLEKEVVRVWFCNRRHKEKR [Q52H], -0.113 ± 0.15.
The result for KKRTSIEVSVKGALESHFLKCPKPSAQEITNLADSLQLEKEVVRGWFCNRRQKEKR [V45G] reads -0.058 ± 0.063.
Take KKRTSIEVSVKGALESHFLKCPKPSAQEITNLADSLQFEKEVVRVWFCNRRQKEKR [L38F]: the abundance fitness was -0.91 ± 0.18.
Turning to KKRTSIEVSVKGALESHFLKCPKPSAQEITNLADSLQIEKEVVRVWFCNRRQKEKR [L38I], the abundance fitness was -0.048 ± 0.16.
The result for KKRTSIEVSVKCALESHFLKCPKPSAQEITNLADSLQLEKEVVRVWFCNRRQKEKR [G12C] reads 0.096 ± 0.12; that for KKRTSIEVSVKLALESHFLKCPKPSAQEITNLADSLQLEKEVVRVWFCNRRQKEKR [G12L], 0.104 ± 0.071; that for KKRTSQEVSVKGALESHFLKCPKPSAQEITNLADSLQLEKEVVRVWFCNRRQKEKR [I6Q], -0.084 ± 0.09.
The result for KKRTSIEVSVKGALESHFLKCPKPSAQEITNLADSLQLEKEVGRVWFCNRRQKEKR [V43G] reads -0.967 ± 0.088; that for KKRTGIEVSVKGALESHFLKCPKPSAQEITNLADSLQLEKEVVRVWFCNRRQKEKR [S5G], -0.008 ± 0.064.
